Target: TgPLP1 MACPF domain (residues 462 to 809, N720Q/N744Q), trypsinized in situ (TMH2 cut away) (Toxoplasma gondii) (UniProt V5BCL0)
Test: crystal structure; second crystal form of the trypsinized MACPF domain, about 5 Å (5.0 in text, 5.11 in Table 1); 0.1 M Hepes pH 7.5, 10% alcohol mixture, 15% PEG-1000, 15% PEG-3350, 15% MPD; ring assembly, rigid-body refinement only

TgPLP1 MACPF domain (residues 462 to 809, N720Q/N744Q), trypsinized in situ (TMH2 cut away) (from UniProt V5BCL0 462-809) (domain or fragment)
stoichiometry N: 6

Source: PMC5943054
